# According to article PMC6684660, “ABCG1 contributes to suberin formation in Arabidopsis thaliana roots” (Scientific Reports, 2019):
# Changes are numbered by the printed parent chain. In names and notes the source's numbering stands.
# B1: AtABCG1 (Arabidopsis thaliana) (protein)
# chain: MARIVAANDDDSMELNTISSIHDSTLGQLLKNVSDVRKMAIGDETPVHESLNQDYNDGYMRTVPFVLSFDNLTYNVSVRPKLDFRNLFPRRRTEDPEIAQTARPKTKTLLNNISGETRDGEIMAVLGASGSGKSTLIDALANRIAKGSLKGTVKLNGETLQSRMLKVISAYVMQDDLLFPMLTVEETLMFAAEFRLPRSLPKSKKKLRVQALIDQLGIRNAAKTIIGDEGHRGISGGERRRVSIGIDIIHDPILLFLDEPTSGLDSTSAFMVVKVLKRIAQSGSIVIMSIHQPSHRVLGLLDRLIFLSRGHTVYSGSPASLPRFFTEFGSPIPENENRTEFALDLIRELEGSAGGTRGLIEFNKKWQEMKKQSNRQPPLTPPSSPYPNLTLKEAIAASISRGKLVSGGESVAHGGATTNTTTLAVPAFANPMWIEIKTLSKRSMLNSRRQPELFGIRIASVVITGFILATVFWRLDNSPKGVQERLGFFAFAMSTMFYTCADALPVFLQERYIFMRETAYNAYRRSSYVLSHAIVSFPSLIFLSVAFAATTYWAVGLDGGLTGLLFYCLIILASFWSGSSFVTFLSGVVPSVMLGYTIVVAILAYFLLFSGFFINRNRIPDYWIWFHYMSLVKYPYEAVLQNEFSDATKCFVRGVQIFDNTPLGELPEVMKLKLLGTVSKSLGVTISSTTCLTTGSDILRQQGVVQLSKWNCLFITVAFGFFFRILFYFTLLLGSKNKRR
# notes: full-length half-size transporter, N-terminal tag (CBP, His detected) kept, expressed in Pichia pastoris X33, purified in Fos-Choline-14, 86 kDa with tag, homodimer
# B2: AtABCG1 (Arabidopsis thaliana; E259Q/H291A) (protein)
# chain: B1 chain with E259Q, H291A
# notes: as for B1
# Substrate: Nc1ncnc2c1ncn2[C@@H]1O[C@H](COP(=O)(O)OP(=O)(O)OP(=O)(O)O)[C@@H](O)[C@H]1O
# Experiment: malachite green ATPase assay
# Assay type: biochemical, Arabidopsis thaliana
# Settings: ATP 0-8 mM, 10 mM MgCl2, 25 °C
# Description: malachite green ATPase assay on AtABCG1
# [1] = Fos-Choline-14, EQ/HA background subtracted
# [2] = Fos-Choline-14, hydrolysis-deficient mutant used as background control
Protein,Km [1] [µM],Vmax [1] [µmol/min/mg],Km [2] [µM],Vmax [2] [µmol/min/mg]
B1,1800 ± 100,0.0188,,
B2,,,700 ± 400,0.0017
